In the array DNA melting data of Ke et al.:

Assay: melting temperature; melt of duplexes
Details: sodium 0.0675 M; strand 1 µM

Substance	Tm [°C]
CGACGTGCCCGATGTGCTG+CAGCACATATTGCACGTCG ((((((((...((((((((+))))))))...))))))))	47.7
CGACGTGCCCGATGTGCTG+CAGCACATCACGCACGTCG ((((((((..(((((((((+)))))))))..))))))))	52.2
CGACGTGCCCGATGTGCTG+CAGCACATCCAGCACGTCG ((((((((..(((((((((+)))))))))..))))))))	52.7
CGACGTGCCCGATGTGCTG+CAGCACATCCCGCACGTCG ((((((((..(((((((((+)))))))))..))))))))	51.9
CGACGTGCCCGATGTGCTG+CAGCACATCCTGCACGTCG ((((((((..(((((((((+)))))))))..))))))))	52.5
CGACGTGCCCGATGTGCTG+CAGCACATCGTGCACGTCG ((((((((.((((((((((+)))))))))).))))))))	57.1
CGACGTGCCCGATGTGCTG+CAGCACATCTTGCACGTCG ((((((((..(((((((((+)))))))))..))))))))	52.5
CGACGTGCCCGATGTGCTG+CAGCACATGCAGCACGTCG ((((((((...((((((((+))))))))...))))))))	49.6
CGACGTGCCCGATGTGCTG+CAGCACATGCGGCACGTCG (((((((((..((((((((+))))))))..)))))))))	54.6
CGACGTGCCCGATGTGCTG+CAGCACATGTCGCACGTCG ((((((((...((((((((+))))))))...))))))))	48.4
CGACGTGCCCGATGTGCTG+CAGCACATTACGCACGTCG ((((((((...((((((((+))))))))...))))))))	48
CGACGTGCCCGATGTGCTG+CAGCACATTCCGCACGTCG ((((((((...((((((((+))))))))...))))))))	48.2
CGACGTGCCCGATGTGCTG+CAGCACATTCGGCACGTCG (((((((((..((((((((+))))))))..)))))))))	54.9
CGACGTGCCCTATGTGCTG+CAGCACATAACGCACGTCG ((((((((..(((((((((+)))))))))..))))))))	48.7
CGACGTGCCCTATGTGCTG+CAGCACATAAGGCACGTCG (((((((((.(((((((((+))))))))).)))))))))	55.6
CGACGTGCCCTATGTGCTG+CAGCACATAATGCACGTCG ((((((((..(((((((((+)))))))))..))))))))	48.8
CGACGTGCCCTATGTGCTG+CAGCACATAGAGCACGTCG ((((((((.((((((((((+)))))))))).))))))))	55.6
CGACGTGCCCTATGTGCTG+CAGCACATAGGGCACGTCG (((((((((((((((((((+)))))))))))))))))))	64.4
CGACGTGCCCTATGTGCTG+CAGCACATATCGCACGTCG ((((((((..(((((((((+)))))))))..))))))))	48.1
CGACGTGCCCTATGTGCTG+CAGCACATCACGCACGTCG ((((((((...((((((((+))))))))...))))))))	46.4
CGACGTGCCCTATGTGCTG+CAGCACATCATGCACGTCG ((((((((...((((((((+))))))))...))))))))	46.8
CGACGTGCCCTATGTGCTG+CAGCACATCCGGCACGTCG (((((((((..((((((((+))))))))..)))))))))	52.2
CGACGTGCCCTATGTGCTG+CAGCACATCGGGCACGTCG ((((((((((.((((((((+)))))))).))))))))))	58.7
CGACGTGCCCTATGTGCTG+CAGCACATCGTGCACGTCG ((((((((.(.((((((((+)))))))).).))))))))	44.2

Substance	Tm [°C]
CGACGTGCCCTATGTGCTG+CAGCACATCTGGCACGTCG (((((((((..((((((((+))))))))..)))))))))	53.2
CGACGTGCCCTATGTGCTG+CAGCACATGAAGCACGTCG ((((((((...((((((((+))))))))...))))))))	49
CGACGTGCCCTATGTGCTG+CAGCACATGACGCACGTCG ((((((((...((((((((+))))))))...))))))))	44
CGACGTGCCCTATGTGCTG+CAGCACATGCAGCACGTCG ((((((((...((((((((+))))))))...))))))))	49.7
CGACGTGCCCTATGTGCTG+CAGCACATGCCGCACGTCG ((((((((...((((((((+))))))))...))))))))	47.7
CGACGTGCCCTATGTGCTG+CAGCACATGCTGCACGTCG ((((((((...((((((((+))))))))...))))))))	45.4
CGACGTGCCCTATGTGCTG+CAGCACATGGCGCACGTCG ((((((((.(.((((((((+)))))))).).))))))))	52.9
CGACGTGCCCTATGTGCTG+CAGCACATGGGGCACGTCG ((((((((((.((((((((+)))))))).))))))))))	61.4
CGACGTGCCCTATGTGCTG+CAGCACATTATGCACGTCG ((((((((...((((((((+))))))))...))))))))	48
CGACGTGCCCTATGTGCTG+CAGCACATTCGGCACGTCG (((((((((..((((((((+))))))))..)))))))))	52.9
CGACGTGCCCTATGTGCTG+CAGCACATTGAGCACGTCG ((((((((.(.((((((((+)))))))).).))))))))	51.8
CGACGTGCCGAATGTGCTG+CAGCACATACTGCACGTCG ((((((((.(.((((((((+)))))))).).))))))))	50.2
CGACGTGCCGAATGTGCTG+CAGCACATAGAGCACGTCG ((((((((...((((((((+))))))))...))))))))	49.9
CGACGTGCCGAATGTGCTG+CAGCACATAGGGCACGTCG (((((((((..((((((((+))))))))..)))))))))	54.4
CGACGTGCCGAATGTGCTG+CAGCACATCAAGCACGTCG ((((((((...((((((((+))))))))...))))))))	49.6
CGACGTGCCGAATGTGCTG+CAGCACATCACGCACGTCG ((((((((...((((((((+))))))))...))))))))	48.9
CGACGTGCCGAATGTGCTG+CAGCACATCCAGCACGTCG ((((((((.(.((((((((+)))))))).).))))))))	49.8
CGACGTGCCGAATGTGCTG+CAGCACATCCCGCACGTCG ((((((((.(.((((((((+)))))))).).))))))))	49.6
CGACGTGCCGAATGTGCTG+CAGCACATCGCGCACGTCG ((((((((...((((((((+))))))))...))))))))	54.7
CGACGTGCCGAATGTGCTG+CAGCACATGACGCACGTCG ((((((((...((((((((+))))))))...))))))))	50.1
CGACGTGCCGAATGTGCTG+CAGCACATGCAGCACGTCG ((((((((.(.((((((((+)))))))).).))))))))	52.6
CGACGTGCCGAATGTGCTG+CAGCACATGCTGCACGTCG ((((((((.(.((((((((+)))))))).).))))))))	50.8
CGACGTGCCGAATGTGCTG+CAGCACATGGAGCACGTCG ((((((((...((((((((+))))))))...))))))))	53.1
CGACGTGCCGAATGTGCTG+CAGCACATGTGGCACGTCG (((((((((..((((((((+))))))))..)))))))))	57.2

Substance	Tm [°C]
CGACGTGCCGAATGTGCTG+CAGCACATTAAGCACGTCG ((((((((..(((((((((+)))))))))..))))))))	52.3
CGACGTGCCGAATGTGCTG+CAGCACATTCAGCACGTCG ((((((((.((((((((((+)))))))))).))))))))	57
CGACGTGCCGAATGTGCTG+CAGCACATTCCGCACGTCG ((((((((.((((((((((+)))))))))).))))))))	56
CGACGTGCCGAATGTGCTG+CAGCACATTGTGCACGTCG ((((((((..(((((((((+)))))))))..))))))))	50.1
CGACGTGCCGAATGTGCTG+CAGCACATTTCGCACGTCG ((((((((..(((((((((+)))))))))..))))))))	52.4
CGACGTGCCGAATGTGCTG+CAGCACATTTGGCACGTCG (((((((((.(((((((((+))))))))).)))))))))	60.6
CGACGTGCCGAATGTGCTG+CAGCACATTTTGCACGTCG ((((((((..(((((((((+)))))))))..))))))))	51.7
CGACGTGCCGCATGTGCTG+CAGCACATAAAGCACGTCG ((((((((...((((((((+))))))))...))))))))	50.1
CGACGTGCCGCATGTGCTG+CAGCACATAATGCACGTCG ((((((((...((((((((+))))))))...))))))))	47.9
CGACGTGCCGCATGTGCTG+CAGCACATACCGCACGTCG ((((((((.(.((((((((+)))))))).).))))))))	48.9
CGACGTGCCGCATGTGCTG+CAGCACATAGTGCACGTCG ((((((((...((((((((+))))))))...))))))))	46.8
CGACGTGCCGCATGTGCTG+CAGCACATCACGCACGTCG ((((((((...((((((((+))))))))...))))))))	48.3
CGACGTGCCGCATGTGCTG+CAGCACATCAGGCACGTCG (((((((((..((((((((+))))))))..)))))))))	55.5
CGACGTGCCGCATGTGCTG+CAGCACATCATGCACGTCG ((((((((...((((((((+))))))))...))))))))	48.6
CGACGTGCCGCATGTGCTG+CAGCACATCCGGCACGTCG ((((((((((.((((((((+)))))))).))))))))))	58.2
CGACGTGCCGCATGTGCTG+CAGCACATCGAGCACGTCG ((((((((...((((((((+))))))))...))))))))	54.5
CGACGTGCCGCATGTGCTG+CAGCACATGAAGCACGTCG ((((((((..(((((((((+)))))))))..))))))))	53.8
CGACGTGCCGCATGTGCTG+CAGCACATGACGCACGTCG ((((((((..(((((((((+)))))))))..))))))))	51.2
CGACGTGCCGCATGTGCTG+CAGCACATGAGGCACGTCG (((((((((.(((((((((+))))))))).)))))))))	62.6
CGACGTGCCGCATGTGCTG+CAGCACATGCGGCACGTCG (((((((((((((((((((+)))))))))))))))))))	69.1
CGACGTGCCGCATGTGCTG+CAGCACATGGCGCACGTCG ((((((((..(((((((((+)))))))))..))))))))	54.9
CGACGTGCCGCATGTGCTG+CAGCACATGGGGCACGTCG (((((((((.(((((((((+))))))))).)))))))))	62.6
CGACGTGCCGCATGTGCTG+CAGCACATGGTGCACGTCG ((((((((..(((((((((+)))))))))..))))))))	52
CGACGTGCCGCATGTGCTG+CAGCACATGTAGCACGTCG ((((((((..(((((((((+)))))))))..))))))))	54.4
